Substitutions are numbered along the chain they refer to. Names may count otherwise.
Key:
[1] = biological target: b-PD-1 monomer (human PD-1) (human) (UniProt Q15116); experiment: MSD solution equilibrium titration, avid KD
cynoPD-1_Fc (cyno) = cynoPD-1_Fc (cyno) (UniProt B0LAJ3); experiment: BLI (ForteBio), Fab in solution, cynoPD-1_Fc on sensor tip
human PD-1 on cells [2] = biological target: T1, human PD-1 on cells (human, UniProt Q15116 25-288); experiment: flow cytometry blocking assay, 100 nM control IgG on CHO cells with human PD-1, then PD-L2-FITC (remaining ligand signal)
human PD-1 on cells [3] = biological target: T1, human PD-1 on cells; experiment: cell-based or functional assay
human PD-1 on cells [4] = biological target: T1, human PD-1 on cells; experiment: cell-based or functional assay; remark: listed apart in the source
human PD-1 on cells [5] = biological target: T1, human PD-1 on cells; experiment: flow cytometry on CHO cells with human PD-1, n=1
Experimental: Cells are then washed 3×, and are incubated with a secondary antibody (PE-labelled, at final concentration of 5 μg/ml) in PBS 1% BSA for 30 min on ice (protected from light). Cells are washed 3× and analyzed via flow cytometry. Flow cytometry is performed on an Accuri C6 system (BD Biosciences) and MFIs are calculated on the C6 software. EC50s are calculated on Graphpad software.

human PD-1 on cells [6] = biological target: T1, human PD-1 on cells; experiment: flow cytometry blocking assay, 100 nM antibody on CHO cells with human PD-1, then PD-L2-FITC (remaining ligand signal)
Experimental: CHO cells 0.2×10⁶ are incubated with the experimental antibody (100 nM) for 30 min in PBS 1% BSA on ice. […] Cells are washed 3× and analyzed via flow cytometry. Flow cytometry is performed on an Accuri C6 system (BD Biosciences) and MFIs are calculated on the C6 software. EC50 s are calculated on Graphpad software.

[7] = biological target: T2, b-PD-1 monomer (human PD-1) (human, UniProt Q15116 25-167, limits assumed, biotinylated (b-PD-1; detected with streptavidin), site not stated); experiment: MSD solution equilibrium titration, avid KD
T2 construct: The antigen used for the avid KD is not described separately; also called antigen
Experimental: (§1) Equilibrium affinity measurements are performed as previously described (Estep, P., et al., MAbs, 2013.5 (2): p. 270-8). Solution equilibrium titrations (SET) are performed in PBS+0.1% IgG-Free BSA (PBSF) where antigen (b-PD-1 monomer) is held constant at 10-100 pM and is incubated with 3-to 5-fold serial dilutions of Fab or mAbs starting at 5-100 nM (experimental condition is sample dependent). Antibodies diluted at 20 nM in PBS are coated onto standard bind MSD-ECL plates overnight at 4° C. or at room temperature for 30 min. Plates are blocked with BSA for 30 min whilst shaking at 700 rpm. Plates are then washed 3× with wash buffer (PBSF+0.05% Tween 20). SET samples are applied and incubated on the plates for 150 s with shaking at 700 rpm followed by one wash. Antigen captured on a plate is detected with 250 ng/mL sulfotag-labeled streptavidin in PBSF by incubation on the plate for 3 min. The plates are washed three times with wash buffer and are then read on the MSD Sector Imager 2400 instrument using 1× Read Buffer T with surfactant. The percent free antigen is plotted as a function of titrated antibody in Prism and fit to a quadratic equation to extract the KD. To improve throughput, liquid handling robots are used throughout MSD-SET experiments, including for SET sample preparation.

[8] = biological target: T2, b-PD-1 monomer (human PD-1); experiment: MSD solution equilibrium titration, monovalent KD
Experimental: as §1

human PD-1_His = biological target: T3, human PD-1_His (human, UniProt Q15116 25-167, limits assumed); experiment: BLI (ForteBio), hPD-1_HIS in solution, IgG on sensor tip
T3 construct: also called hPD-1_HIS
Experimental: Briefly, ForteBio affinity measurements were performed by loading IgGs online onto AHQ sensors. Sensors were equilibrated off-line in assay buffer for 30 min and then monitored on-line for 60 seconds for baseline establishment. Sensors with loaded IgGs were exposed to 100 nM antigen for 5 min, afterwards they were transferred to assay buffer for 5 min for off-rate measurement. Kinetics was analyzed using the 1:1 binding model.

human PD-1_Fc = biological target: T4, human PD-1_Fc (human, UniProt Q15116 25-167, limits assumed); experiment: BLI (ForteBio), Fab in solution, hPD-1_Fc on sensor tip
T4 construct: also called hPD-1_Fc

cynoPD-1_Fc = cynoPD-1_Fc (cyno, UniProt B0LAJ3 25-170); experiment: BLI (ForteBio), Fab in solution, cynoPD-1_Fc on sensor tip
cynoPD-1_Fc, sequence (B0LAJ3 entry or part of it limits assumed): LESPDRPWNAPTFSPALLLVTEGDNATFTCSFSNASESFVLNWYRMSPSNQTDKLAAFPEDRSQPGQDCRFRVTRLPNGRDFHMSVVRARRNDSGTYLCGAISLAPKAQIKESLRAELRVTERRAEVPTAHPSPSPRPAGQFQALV

T1 sequence (Q15116 25-288 limits assumed): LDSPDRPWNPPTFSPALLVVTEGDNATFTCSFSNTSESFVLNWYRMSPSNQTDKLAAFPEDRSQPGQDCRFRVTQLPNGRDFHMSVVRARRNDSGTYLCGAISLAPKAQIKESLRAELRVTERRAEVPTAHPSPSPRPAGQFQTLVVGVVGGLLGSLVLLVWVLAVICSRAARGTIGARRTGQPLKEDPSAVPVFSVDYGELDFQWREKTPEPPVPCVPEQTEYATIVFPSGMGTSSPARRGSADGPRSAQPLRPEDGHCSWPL
T3 sequence (Q15116 25-167 limits assumed): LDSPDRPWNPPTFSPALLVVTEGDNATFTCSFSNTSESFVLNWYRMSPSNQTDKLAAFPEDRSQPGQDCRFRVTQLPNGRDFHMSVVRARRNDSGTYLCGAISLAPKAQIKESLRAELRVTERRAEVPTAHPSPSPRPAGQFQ
T2 sequence (Q15116 25-167 limits assumed): as above
T4 sequence (Q15116 25-167 limits assumed): as above
cynoPD-1_Fc (cyno), sequence (B0LAJ3 entry or part of it limits assumed): as the sequence (B0LAJ3 entry or part of it limits assumed) above
b-PD-1 monomer (human PD-1) (human), sequence (Q15116 25-167 limits assumed): as the sequence (Q15116 25-167 limits assumed) above

In the case of nivolumab (antibody), the Kd [1] is reported as 5 pM.

nivolumab Fab gave a Kd (cynoPD-1_Fc (cyno)) of 1.2 nM.

In the case of pembrolizumab Fab, the Kd (cynoPD-1_Fc (cyno)) is reported as 0.47 nM.

control IgG (antibody) gave an MFI (PD-L2-FITC) (human PD-1 on cells [2]) of 183000 MFI.

B1: Antibody B S228P IgG4 (xd-16 B) (antibody, V domains shown)
VH: QVQLVQSGAEVKKPGSSVKVSCKASGGTFSSTAISWVRQAPGQGLEWMGGIWPSFGTASYAQKFQGRVTITADESTSTAYMELSSLRSEDTAVYYCARAEYSSTGIFDYWGQGTLVTVSS
VL: DIQMTQSPSSVSASVGDRVTITCRASQGISSWLAWYQQKPGKAPKLLISAASSLQSGVPSRFSGSGSGTDFTLTISSLQPEDFATYYCQQANHLPFTFGGGTKVEIKR
notes: also called xd-16 B (IgG4 S228P); xd-16 B IgG4
In the case of B1, the “IL-2 secretion fold change vs. IgG control, 0.01 nM IgG” value (human PD-1 on cells [3]) is reported as 1.15 fold, the “IL-2 secretion fold change vs. IgG control, 0.1 nM IgG” value (human PD-1 on cells [3]) is reported as 1.46 fold and the “IL-2 secretion fold change vs. IgG control, 1 nM IgG” value (human PD-1 on cells [3]) is reported as 2.18 fold. The “IL-2 secretion fold change vs. IgG control, 10 nM IgG” value (human PD-1 on cells [3]) was 2.39 fold, the “IL-2 secretion fold change vs. IgG control, 100 nM IgG” value (human PD-1 on cells [3]) was 2.37 fold and the “IFNg secretion fold change vs. IgG control, 0.01 nM IgG” value (human PD-1 on cells [4]) was 1.09 fold. The “IFNg secretion fold change vs. IgG control, 0.1 nM IgG” value (human PD-1 on cells [4]) was 1.59 fold, the “IFNg secretion fold change vs. IgG control, 1 nM IgG” value (human PD-1 on cells [4]) was 2.15 fold and the “IFNg secretion fold change vs. IgG control, 10 nM IgG” value (human PD-1 on cells [4]) was 2.17 fold. The “IFNg secretion fold change vs. IgG control, 100 nM IgG” value (human PD-1 on cells [4]) was 1.9 fold and the EC50 (human PD-1 on cells [5]) was 1.46 nM.

B2: xd-16 B, IgG1 format expressed in yeast (antibody, V domains shown)
VH: B1 VH
VL: DIQMTQSPSSVSASVGDRVTITCRASQGISSWLAWYQQKPGKAPKLLISAASSLQSGVPSRFSGSGSGTDFTLTISSLQPEDFATYYCQQANHLPFTFGGGTKVEIK
notes: Tested as IgG1 expressed in yeast; also called Antibody B
With B2 the “MFI (PD-L2-FITC)” value (human PD-1 on cells [6]) was 26400 MFI, the Kd [7] was ~0.9 pM and the Kd [8] was 0.045 nM. For the same molecule, the Kd (human PD-1_His) was 0.42 nM.

B3: xd-16 B, Fab format produced from IgG1 expressed in yeast (Fab, V domains shown)
VH: B1 VH
VL: B2 VL
notes: Fab produced from the yeast IgG1
With B3 the Kd (human PD-1_Fc) was 0.63 nM and the Kd (cynoPD-1_Fc) was 0.78 nM.

B4: xd-16 E, Fab format produced from IgG1 expressed in yeast (Fab, V domains shown)
VH: B1 VH with S59N, Q62R
VL: B2 VL
notes: as for B3
B4 was tested, and the Kd (human PD-1_Fc) was 0.86 nM and the Kd (cynoPD-1_Fc) was 1 nM.

B5: xd-16 D, IgG1 format expressed in yeast (antibody, V domains shown)
VH: B1 VH with G56D, S59N, Q65R, I106T
VL: B2 VL
notes: Tested as IgG1 expressed in yeast; also called Antibody D
With B5 the “MFI (PD-L2-FITC)” value (human PD-1 on cells [6]) was 40000 MFI, the Kd [7] was 1.3 pM and the Kd [8] was 0.093 nM. The Kd (human PD-1_His) was 0.65 nM.

B6: xd-16 D, Fab format produced from IgG1 expressed in yeast (Fab, V domains shown)
VH: B1 VH with G56D, S59N, Q65R, I106T
VL: B2 VL
notes: as for B3
Work on B6 yielded a Kd (human PD-1_Fc) of 0.99 nM and a Kd (cynoPD-1_Fc) of 1.2 nM.

B7: xd-16 C, IgG1 format expressed in yeast (antibody, V domains shown)
VH: B1 VH with Q65R, I106T
VL: B2 VL
notes: Tested as IgG1 expressed in yeast; also called Antibody C
For B7, the “MFI (PD-L2-FITC)” value (human PD-1 on cells [6]) was 26500 MFI, the Kd [7] was 2.5 pM and the Kd [8] was 0.05 nM. It also gave a Kd (human PD-1_His) of 0.38 nM.

B8: Antibody D S228P IgG4 (xd-16 D) (antibody, V domains shown)
VH: B1 VH with G56D, S59N, Q65R, I106T
VL: B1 VL
notes: also called xd-16 D (IgG4 S228P); xd-16 D IgG4
B8 was tested, and the EC50 (human PD-1 on cells [5]) was 1.47 nM.

B9: xd-16 C, Fab format produced from IgG1 expressed in yeast (Fab, V domains shown)
VH: B1 VH with Q65R, I106T
VL: B2 VL
notes: as for B3
B9 gave a Kd (human PD-1_Fc) of 0.57 nM and a Kd (cynoPD-1_Fc) of 0.73 nM.

B10: xd-16 E, IgG1 format expressed in yeast (antibody, V domains shown)
VH: B1 VH with S59N, Q62R
VL: B2 VL
notes: Tested as IgG1 expressed in yeast; also called Antibody E
In the case of B10, the “MFI (PD-L2-FITC)” value (human PD-1 on cells [6]) is reported as 40900 MFI, the Kd [7] is reported as ~0.9 pM and the Kd [8] is reported as 0.15 nM. It also gave a Kd (human PD-1_His) of 0.56 nM.
